The results in this text go back to patent US20110256172A1.

In the test the target is Bacillus anthracis protective antigen (PA83, List Biological Laboratories) (Bacillus anthracis) (UniProt P13423). Put plainly: cell-based or functional assay.
Sequence of UniProt P13423 (P13423 30-764): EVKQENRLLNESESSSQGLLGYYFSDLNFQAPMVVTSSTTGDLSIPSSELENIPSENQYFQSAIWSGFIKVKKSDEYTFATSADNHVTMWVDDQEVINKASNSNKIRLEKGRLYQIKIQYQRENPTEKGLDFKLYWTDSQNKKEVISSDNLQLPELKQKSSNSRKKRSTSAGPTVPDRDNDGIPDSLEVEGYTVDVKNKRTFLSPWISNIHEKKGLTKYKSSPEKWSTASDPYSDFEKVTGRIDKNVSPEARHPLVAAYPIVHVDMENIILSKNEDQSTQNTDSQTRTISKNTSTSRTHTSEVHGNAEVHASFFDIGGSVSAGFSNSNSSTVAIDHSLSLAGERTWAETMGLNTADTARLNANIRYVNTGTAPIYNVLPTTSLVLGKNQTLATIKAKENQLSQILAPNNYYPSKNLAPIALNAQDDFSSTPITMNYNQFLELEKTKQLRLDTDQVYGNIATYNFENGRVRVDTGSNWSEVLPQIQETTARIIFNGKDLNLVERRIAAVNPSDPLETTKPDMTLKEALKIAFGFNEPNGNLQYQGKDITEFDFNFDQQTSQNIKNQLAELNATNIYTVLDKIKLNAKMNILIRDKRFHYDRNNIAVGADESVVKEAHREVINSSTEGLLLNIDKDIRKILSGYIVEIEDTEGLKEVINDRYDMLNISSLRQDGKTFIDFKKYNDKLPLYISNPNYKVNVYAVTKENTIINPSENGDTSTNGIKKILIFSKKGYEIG

“Sera of the three rabbits immunized with MAP304 (four copies of P30-PA 304-319)” displayed a peak neutralization titer (TNA) (fold over the control PA antiserum) of 23.
As to “Sera of the three rabbits immunized with MAP305 (four copies of P30-PA 305-319)”, the peak neutralization titer (TNA) (fold over the control PA antiserum) turned out to be 19.
